PMC3423370

Legend:
[1] = target: Recombinant BgAChBP2 (Biomphalaria glabrata); experiment: negative-stain electron microscopy; refolded recombinant protein, 20 mM Tris-HCl pH 8.0 with 50 mM imidazole; 2% uranyl acetate; for BgAChBP1 a 3D reconstruction (~20 Å) from ~3000 negatively stained particles
[2] = target: Biomphalaria glabrata acetylcholine-binding protein (BgAChBP), native rosette protein from hemolymph (Biomphalaria glabrata); experiment: non-reducing SDS-PAGE; chromatographically enriched native BgAChBP under non-reducing against reducing conditions; disulfide-linked subunit dimers
[3] = target: Biomphalaria glabrata acetylcholine-binding protein (BgAChBP), native rosette protein from hemolymph (Biomphalaria glabrata); experiment: cryo-EM structure; native rosette protein at 1.2 mg/ml vitrified on C-flat holey carbon grids; 9770 single particles, icosahedral symmetry, resolution ~6 Å (FSC0.5 5.9 Å)

Row | stoichiometry N [1] | Substance | stoichiometry N [2] | stoichiometry N [3]
1 | 5 | Recombinant BgAChBP2 (natural protein) | – | –
2 | – | Biomphalaria glabrata acetylcholine-binding protein (BgAChBP), native rosette protein from hemolymph (complex) | 2 | 60
